experiment: soluble on expression in E. coli; label from the status in PepcDB or PDB records

Sequence | soluble on expression in E. coli
MGSDKIHHHHHHMTERTLRGQVAVVGVGESEYYRAGHAPDPEFRLLLKAVLAACRDADIDPADIDGFASFADDRNDAVRIATALGVKRLRSTTMQWGGGGGGCAAAVANGAAAIMSGMAQCVLVYRGLAQGQFGRFGQAAPRASISGEMAYQMPYGVLAPPQKFAMKVQRFMHEHGVRREALRAIALASYQHAQANPRAVMHGKPLTAEAYDASRWIVEPFRLFDCCMENDGAGALLLVAAERAKDFPHRPVYLLGAASGGDWRAAASPHNAPHYASANYSGVSGDLYRMARVSPADVGVVQSYENFTGGVAMALSEHGFFHPDEANDFLTPENLVAPSGKLPLNTSGGNLGECYVHGFELVIEAARQVRGESTSQAARHDVALVIGGPMVTPASSLLFGSAATL | not soluble
PSPQSLDGKNLNFDQQLVIFESENCEFCAQFDRDILAHWQADIPMVATKNTNPPADWTLDKPLFAAPTIVLFREGKEVVRYTGYTGEKENFWQWL | not soluble
FGSLTVFAGDSPYAPPAGGEAIGRLMERAMHDGLVAGGIVLVGNRHGTIYEHVFGKQSSLPDSPPVTSSTIFDIASLTKVIATTPAVMRLAEEGRLSLVDPLVRWFPEFAGHGKDDVLVVHLLTHTSGLDDFSLSSADPLQSAISGVAAQKLKGEPGNRFRYADINFILLGELVRRVTGSTLDRYAADAFLRPLGMKDTAFLPGPAIAERCAATLDGSGGPHFGTVQDPLARLLGGVAGHAGLFGTASDLALFCRMILGEGELNGRRVLEERTVRQMTAPYFSRGGKVTRGLGWDMASPFSSPRGEGFSEESFGHTGYSGGSIWIDPRTDTYVIFLS | not soluble
MYHSLFESLCMVPDPRIERKKIYPLDFLLLIVFLSTLSGNTSWYEIEDYAEEYEEELKSLYEMLTGHQLMHTMPSHDTLNRSISLLDVEAFEGAYKRWIEGFISATSGKHICIDGKTMRGVKKLSFDTQSHVVSAFSPQDMCSLAQLYIDRKTNEIPAIHQLLDLLDLNGAVVSIDAIGTQTAIAEQIIDKGGNYVLCVKANQSLSLQEIEAYFCPLFQKHILLDEQTELSHGRIETRRYESILNPLEIEANEVLTRWKGLRSIHKVVRKRRDKKSDKTSEEVAYYISSLTDVSSLKQAIRGHWAIENKLHHCLDVYFGHDASHKRTRNVAQIMDIIQKINLLIIERLKTNMKSSIPRIQKKLARMKPQQLITIQF | not soluble
MKIAIIGLGLMGGSLGLCLKENKLISCVYGMDLSKENEKDALQLGLIHELIEFKDLALCDMIFVATPVNAIIEILQKLVDLPSNVTIIELGSTKRKIIESLPKNLIKQTLFAHPMTGTENSGPKAAFKELYKDAVCVLCDSEIADDLHQKRAVEIFSHLGMKIVFMDSKAHDHHAAIISHLPHVISFSLANFVMKEEDKRNIVHLAGGSFKGMSRIAKSSPQMWESIFLQNKDNLLSSIDFFQQELERCKQMIQLDKNDELREWMKQANTLREILMGHHHHHHSH | soluble
MGSDKIHHHHHHMNDDIYDEMVRERGREYFLKNMVKYCVKRGNTLHGTVYGSDKYITKVDLKTKTGICTCPYQYNCKHAYALLESYKSGKYVDGDELFLNFSKLDKLEILKIFESIIEKHNLWDEFITEDKTLLDTAKNMLELTKIEKKNVFTFTSFLRNQFLKNAGNEELLLIIPDVIKYIQERKKLEEILFLIVDELFERGKTDKDTLKKLIELSRKYRELWMVKDNILDYEYFELLEY | not soluble
MAIHNRAGQPAQQSDLINVAQLTAQYYVLKPEAGNAEHAVKFGTSGHRGSAGRHSFNEPHILAIAQAIAEERAKNGITGPCYVGKDTHALSEPAFISVLEVLAANGVDVIVQENNGFTPTPAVSNAILVHNKKGGPLADGIVITPSHNPPEDGGIKYNPPNGGPADTNVTKVVEDRANALLAGGLQGVKRISLDAAMASGHVKAVDLVQPFVEGLADIVDMAAIQKAGLTLGVDPLGGSGIEYWKRIAEHYKLNLTLVNDQVDQTFRFMHLDKDGAIRMDCSSECAMAGLLALRDKFDLAFANDPDYDRHGIVTPAGLMNPNHYLAVAINYLFQHRPLWGKDVAVGKTLVSSAMIDRVVNDLGRKLVEVPVGFKWFVDGLFDGSFGFGGEESAGASFLRFDGTPWSTDKDGIIMCLLAAEITAVTGKNPQEHYNELAARFGAPSYNRLQASATSAQKAALSKLSPEMVSASTLAGDPITARLTAAPGNGASIGGLKVMTDNGWFAARPSGTEDAYKIYCESFLGEEHRKQIEKEAVEIVSEVLKNA | soluble
MSLASEILPDEFLELFKDLKKPPKKLHYKGNLSLLKQDKIAIIGSRRMSVYTKNCVFSLASMLKNAHLCVVSGGALGVDITASMAAMPNTIGIFANGLDQIYPRTNEKIIKQIYENALALSEYEDDYLPKNYDFLLRNRLVIALSKAVVVAQADIKSGSMQSAKLALELNKPLYVLPQRLGESTATNLLLKENKAKLICDFKEFVSEFASIDMNQDEFLEFCKKGVSVDEALKIYGQKVYEYELEGKISIEGLFIRVLAEGHHHHHH | soluble
MTRLTLALDVMGGDFGPSVTVPAALQALNANSQLTLLLVGNPDIITPLLAKADFEQRSRLQIIPAQSVIASDARPSQAIRASRGTSMRVALELVKEGRAEACVSAGNTGALMGLAKLLLKPLEGIERPALVTVLPHQQKGKTVVLDLGANVDCDSTMLVQFAVMGAVLAEEVVGIKNPRVALLNIGEEETKGLDSIREASLMLKTVPTINYIGYLEANELLTGKTDVLVCDGFTGNVTLKTMEGVVRMFLSLLKSQGEGKKRSWWLLLLKRWLQKSLTRRFSHLNPDQYNGACLLGLRGTVIKSHGAANQRAFAVAIEQAVQAVQRQVPQRIAARLESVYPAGFEPLDDGKGVNLRAHR | not soluble
MMKEQNIPQDSLIAGYLPADYCDSFSRNVVSEKAITSDEFFDMAFNHSPGWVNGLMKLRNAIVKPLGLEVGMRFADTICEQNAQEVVFGMPDKHLTFHASLWCGEKEPGGQTFTITTVVKFNNRLGRLYFFFIRPFHKVIIRSMLKRVAKRLK | not soluble
MSNYSVSLVGPAPWGFRLQGGKDFNMPLTISSLKDGGKAAQANVRIGDVVLSIDGINAQGMTHLEAQNKIKGCTGSLNMTLQRASAAPKPEPVPVQKGEPKEVVKPVPITSPAVSKVTSTNNMAYNKAPRPFGSVSSPKVTSIPSPSSAFTPAHATTSSHASPSPVAAVTPPLFAASGLHANANLSADQSPSALSAGKTAVNVPRQPTVTSVCSETSQELAEGQRRGSQGDSKQQNGPPRKHIVERYTEFYHVPTHSDASKKRLIEDTEDWRPRTGTTQSRSFRILAQITGTEHLKESEADNTKKANNSQEPSPQLASSVASTRSMPESLDSPTSGRPGVTSLTTAAAFKPVGSTGVIKSPSWQRPNQGVPSTGRISNSAAYSGSVAPANSALGQTQPSDQDTLVQRAEHIPAGKRTPMCAHCNQVIRGPFLVALGKSWHPEEFNCAHCKNTMAYIGFVEEKGALYCELCYEKFFAPECGRCQRKILGEVINALKQTWHVSCFVCVACGKPIRNNVFHLEDGEPYCETDYYALFGTICHGCEFPIEAGDMFLEALGYTWHDTCFVCSVCCESLEGQTFFSKKDKPLCKKHAHSVNF | soluble
MLSYRHAFHAGNHADMLKHFTLFLVLQYFNRKDKPYWYIDTHGGAGVYNLEGSEAQKVGEYRQGIALLRQAQNLPAELSDFAAHIQKILPSPKLYCGSPWLAQSLTRVGDKLRLFELHPTDFVHLQNNMGEAGLGKRGQVLREDGYKGLISLLPPPPRRATVLIDPPYEEKQDYRRVTETLKAALKRFESGCYLIWYPCLSREESRKLPEELKKLLPDNYLHAELHVHAPKADGFGMHGSGMFVINPPYLLAEQLAANLPALTRLLAQDEGSRYLLDSKIR | not soluble
MTGGTGADAASAGASSTRPELRGERCLPPAGPVKVTPDDPRYLNLKLRGANSRFNGEPDYIHLVGSTQQVADAVEETVRTGKRVAVRSGGHCFEDFVDNPDVKVIIDMSLLTEIAYDPSMNAFLIEPGNTLSEVYEKLYLGWNVTIPGGVCGGVGVGGHICGGGYGPLSRQFGSVVDYLYAVEVVVVNKQGKARVIVATRERDDPHHDLWWAHTGGGGGNFGVVTKYWMRVPEDVGRNPERLLPKPPATLLTSTVTFDWAGMTEAAFSRLLRNHGEWYERNSGPDSPYTGLWSQLMIGNEVPGMGESGFMMPIQVDATRPDARRLLDAHIEAVIDGVPPAEVPEPIEQRWLASTPGRGGRGPASKTKAGYLRKRLTDRQIQAVYENMTHMDGIDYGAVWLIGYGGKVNTVDPAATALPQRDAILKVNYITGWANPGNEAKHLTWVRKLYADVYAETGGVPVPNDVSDGAYINYPDSDLADPGLNTSGVPWHDLYYKGNHPRLRKVKAAYDPRNHFHHALSIRP | soluble
SMQQLVLDPGFLGLEPLLDLLLGVHQELGASELAQDKYVADFLQWAEPIVVRLKEVRLQRDDFEILKVIGRGAFSEVAVVKMKQTGQVYAMKIMNKWDMLKRGEVSCFREERDVLVNGDRRWITQLHFAFQDENYLYLVMEYYVGGDLLTLLSKFGERIPAEMARFYLAEIVMAIDSVHRLGYVHRDIKPDNILLDRCGHIRLADFGSCLKLRADGTVRSLVAVGTPDYLSPEILQAVGGGPGTGSYGPECDWWALGVFAYEMFYGQTPFYADSTAETYGKIVHYKEHLSLPLVDEGVPEEARDFIQRLLCPPETRLGRGGAGDFRTHPFFFGLDWDGLRDSVPPFTPDFEGATDTCNFDLVEDGLTAMVSGGGETLSDIREGAPLGVHLPFVGYSYSCMALRDSEVPGPTP | soluble
MKLLLLAVCVIGFVACYEVVPRASALRPRGDVRRSPLPSLSAYAPFAKSLRPASTGIRRAPAVVTLPAQKANRSVKRAPAKPLPMTLPLLPPLLPLPQFIPVPVPVLSAEGLPTLPTLAPHTFPTFTPIPGMPTMPALTMPPSFQRLLGITTTTMKPAEKAMETVQTEESDNDTTSEARAHSAPTYSKDLNTIRSRLSKFVRGSEKKVTKAEDNADWIVPFH | not soluble
MMQISSNGITRLKREEGERLKAYSDSRGIPTIGVGHTGKVDGNSVASGMTITAEKSSELLKEDLQWVEDAISSLVRVPLNQNQYDAMCSLIFNIGKSAFAGSTVLRQLNLKNYQAAADAFLLWKKAGKDPDILLPRRRRERALFLS | soluble
MAIDLAEVTGAKAAQERKKEQPTIANGLDKNAFMKLFLEQLKNQDPTAPMETDKIITQTAQLTQVEMQEENKKTMQEVASAMKSNKETNESLKDFQGALKDTMENLNKGMDDSLKANNALREVTALNSVSMIGKIAETDVSGANFDGNNKLSFSLFFDEKIDASKGVPAIQILNENNELVKTIPLKDYNGQKGYINFEWDGTNEKGEKVPKGNYKIKAEYNLDSHSKQYLQTRIGRGEVESVIFDKGKPMLRMGEMVLPIDSAIEFYQPDQKPLEQKLSDQKPIDQKPLDQKPQTPPKETA | not soluble
MSSSLQSNRQSLNRKVAVMGYPHVGKSALVLRFTQNIFPERYESTIEDQHSKHIAAFHRDYHLRVTDTAGQQEYTVFPRSCSLDINGFILVYAIDDRKSFEMCSNIYEKIVRTYGDTSIPIVIVGNKTDLSTQRVVRAEEGEELARQWDAKFVEITARESNRVHEVFELLLREIEISRGNLSPTERPNGNSPKRNPFKDDGKPCSIS | not soluble
